Sequences and labels used below:
B1: GalNAc-labeled LDLR conjugate (LDLR193 (193-720)(N515Q)(N657Q)_SrtA_CHis) (receptor)
chain: not shown
modifications: C-terminal sortase A ligation to GGG-triGalNAc at the LPETGG motif
notes: also called GalNAc trimer-anti-LDLR protein conjugate
B2: recombinant extracellular domain of human ASGPR1 with N-terminal biotinylated Avitag (receptor, UniProt P07306 62-291, looked up)
chain: QNSQLQEELRGLRETFSNFTASTEAQVKGLSTQGGNVGRKMKSLESQLEKQQKDLSEDHSSLLLHVKQFVSDLRSLSCQMAALQGNGSERTCCPVNWVEHERSCYWFSRSGKAWADADNYCRLEDAHLVVVTSWEEQKFVQHHIGPVNTWMGLHDQNGPWKWVDGTDYETGFKNWRPEQPDDWYGHGLGGGEDCAHFTDDGRWNDDVCQRPYRWVCETELDKASQEPPLL
modifications: biotin on the N-terminal Avitag
notes: extracellular domain; also called hASBPR1; AGSPR1; not shown: N-terminal Avitag

For test [1], the target named is T1, purified recombinant full length human PCSK9 with C-terminal biotinylated Avitag (human, UniProt Q8NBP7 31-692, biotin on the C-terminal Avi-tag).
T1 construct: Signal peptide removal and autocatalytic prodomain cleavage are not described for the construct; also called hPCSK9; full length hPCSK9; not shown: Avi-tag
The test is described as follows: SPR, 1:1 binding fit, stepwise injections over avi-PCSK9. In general terms: Surface plasmon resonance follows binding to a sensor surface in real time, without labels.

Test [2] deals with T2, triGalNAc-PCSK9 conjugate 4 (GalNAc-labeled PCSK9) (human, UniProt Q8NBP7 31-692, triGalNAc with a short PEG linker on a single solvent exposed lysine (position not given)).
T2 construct: It is not clear whether the PCSK9 was biotinylated before conjugation; also called triGalNAc-hPCSK9 4; GalNAc trimer-PCSK9 protein conjugate; not shown: Avi-tag
The test is described as follows: SPR, 1:1 binding fit, stepwise injections over ASGPR1; table under FIG. 16B. As to the method:
(§1) ASGPR SPR experiments were performed on either Biacore T200 or Biacore 8K. The assay was optimized for Biacore SA chip in running buffer consisting of 20 mM HEPES, 300 mM NaCl, 2 mM CaCl₂), 0.01% tween-20, 2% DMSO, pH 7.4. Recombinant extracellular domain of human ASGPR1 with N-terminal biotinylated Avitag was diluted to 20 μg/mL in running buffer, and immobilized onto SA chip after it was preconditioned with at least four 60-second injections at 30 μL/min of 1 M NaCl/40 mM NaOH solution. Protein immobilization level varied from 500 RU to 3500 RU dependent on analytes' molecular weight, for targeted Rmax of 30 RUs. Direct binding of analytes to ASGR1 was observed when a dose response titration of analytes in 2% DMSO was flown over the immobilized protein. Data analysis was done on either Biacore T200 Evaluation Software or Biacore Insight Evaluation Software.

The target of test [3] is T2, triGalNAc-PCSK9 conjugate 4 …. The test is described as above. The method, then: as §1
This is another data set of the same source.

Test [4] has as its target B1. The test can be described thus: SPR, 1:1 fit, stepwise injections over avi_deglycosylated_ASGPR1.
Test [5] has as its target B2. The test can be described thus: SPR, independently immobilized ASGPR. The method, then:
as §1

Test [6] addresses B2. The test is described as follows: SPR, stepwise (single-cycle) injections of the bispecific Ab over immobilised hASGPR1. The method, then:
as §1

Test [7] concerns the target T1, purified recombinant full length human …. The test is described as follows: SPR, independently immobilized PCSK9.
The target of test [8] is T3, His-ASGPR1(62-291) (UniProt P07306 62-291).
T3 construct: range 62-291; also called ASGPR1 (analyte of the sandwich SPR assay); not shown: His tag
T3 sequence (looked up): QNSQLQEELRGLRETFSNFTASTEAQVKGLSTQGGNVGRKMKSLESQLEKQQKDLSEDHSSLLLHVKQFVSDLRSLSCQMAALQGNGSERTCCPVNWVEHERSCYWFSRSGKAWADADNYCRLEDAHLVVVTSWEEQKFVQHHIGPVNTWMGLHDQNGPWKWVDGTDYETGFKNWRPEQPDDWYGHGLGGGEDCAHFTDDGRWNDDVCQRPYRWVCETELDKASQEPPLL
The test is described as follows: SPR, ternary format; panel title: hASGPR1 Binding Immobilized Bispecific Ab Bound to hPCSK9.

From patent US20240309084A1 (Novartis, published 2024) come the findings set out here.

Like-named read-outs stand apart in the source and are kept apart here.

Take B1: the Kd (in general, the constant that tells how readily two partners part at equilibrium) in test [1] was determined as 156 nM.

Take B2: the values for the Kd in test [2], in test [3] and in test [4] were 0.299 nM, 0.175 nM and 1.34 nM, respectively.

B3: anti-ASGPR-PCSK9 bispecific antibody (ASGPR_4F3_scFv-PCSK9_Fab_DANAPA_hIgG1_KiH) (bispecific antibody)
light: not shown
chain: not shown
heavy: QVQLVQSGAEVKKPGASVKVSCKASGYTFTSYYMHWVRQAPGQGLEWMGEISPFGGRTNYNEKFKSRVTMTRDTSTSTVYMELSSLRSEDTAVYYCARERPLYASDLWGQGTTVTVSSASTKGPSVFPLAPSSKSTSGGTAALGCLVKDYFPEPVTVSWNSGALTSGVHTFPAVLQSSGLYSLSSVVTVPSSSLGTQTYICNVNHKPSNTKVDKRVEPKSCDKTHTCPPCPAPELLGGPSVFLFPPKPKDTLMISRTPEVTCVVVAVSHEDPEVKFNWYVDGVEVHNAKTKPREEQYASTYRVVSVLTVLHQDWLNGKEYKCKVSNKALAAPIEKTISKAKGQPREPQVCTLPPSREEMTKNQVSLSCAVKGFYPSDIAVEWESNGQPENNYKTTPPVLDSDGSFFLVSKLTVDKSRWQQGNVFSCSVMHEALHNHYTQKSLSLSPGK
notes: also called ASGPR-PCSK9 bispecific antibody 5; bispecific ASGPR-PCSK9 Ab 5
In the case of B3, the Kd in test [5] amounted to 3 nM; in test [6], 2.73 nM; in test [7] it was 0.2 nM; in test [8], 3.27 nM. In addition, the values for the koff in test [6] and in test [8] were 0.000527 s⁻¹ and 5.93e-05 s⁻¹, respectively. Also, the results for the kon in test [6] and in test [8] were 193000 M⁻¹ s⁻¹ and 18200 M⁻¹ s⁻¹, respectively.
